# Reference: patent US20200339690A1 (JOUNCE THERAPEUTICS, published 2020)
# B1: J-19 (antibody, human IgG4 S228P, kappa, V domains shown)
# VH: QVTLKESGPGILQPSHTLSLTCSFSGFSLNTYAMGVSWIRQPSGKGLEWLASIWWNGNKYNNPSLKSRLTVSKDTSNNQAFLKVTSVDTADTATYYCAHSRIIRFTDYVMDAWGQGASVTVSS
# VL: DIQMTQSPASLSTFLGEPVTIECRASEDIYNDLAWYQQKPGKSPQLLIYNANSLHTGVPSRFSGSGSGTQYSLKINSLQSEDVASYFCQQYYDYPLTFGSGTKLEIKR
# notes: Human IgG4 chimera from a rat immunization; also called J-19.h
# Tests used:
# [1] = molecular target: T1, human LILRB2 expressed on cells (human, UniProt Q8N423 22-597); experiment: cell-based or functional assay
# human LILRA1 = molecular target: T2, human LILRA1 (human, UniProt O75019 17-489); experiment: flow cytometry, LILRA1 CHOs
# T2 construct: Over-expressed on CHO-s cells; also called hLILRA1
# human LILRA2 = molecular target: T3, human LILRA2 (human, UniProt Q8N149 24-483); experiment: flow cytometry, LILRA2 CHOs
# T3 construct: Over-expressed on CHO-s cells; also called hLILRA2
# human LILRA3 = molecular target: T4, human LILRA3 (human, UniProt Q8N6C8 24-439); experiment: flow cytometry, LILRA3 CHOs
# T4 construct: Over-expressed on CHO-s cells; also called hLILRA3
# human LILRA4 = molecular target: T5, human LILRA4 (human, UniProt P59901 24-499); experiment: flow cytometry, LILRA4 CHOs
# T5 construct: Over-expressed on CHO-s cells; also called hLILRA4
# human LILRA5 = molecular target: T6, human LILRA5 (human, UniProt A6NI73 42-299); experiment: flow cytometry, LILRA5 CHOs
# T6 construct: Over-expressed on CHO-s cells; also called hLILRA5
# human LILRA6 = molecular target: T7, human LILRA6 (human, UniProt Q6PI73 24-481); experiment: flow cytometry, LILRA6 CHOs
# T7 construct: Over-expressed on CHO-s cells; also called hLILRA6
# human LILRB1 = molecular target: T8, human LILRB1 (human, UniProt Q8NHL6 24-650); experiment: flow cytometry, LILRB1 CHOs
# T8 construct: Over-expressed on CHO-s cells; also called hLILRB1
# [2] = molecular target: T1, human LILRB2 expressed on cells; experiment: flow cytometry, LILRB2 CHOs
# human LILRB3 = molecular target: T9, human LILRB3 (human, UniProt O75022 24-631); experiment: flow cytometry, LILRB3 CHOs
# T9 construct: Over-expressed on CHO-s cells; also called hLILRB3
# human LILRB4 = molecular target: T10, human LILRB4 (human, UniProt Q8NHJ6 22-448); experiment: flow cytometry, LILRB4 CHOs
# T10 construct: Over-expressed on CHO-s cells; also called hLILRB4
# human LILRB5 = molecular target: T11, human LILRB5 (human, UniProt O75023 24-590); experiment: flow cytometry, LILRB5 CHOs
# T11 construct: Over-expressed on CHO-s cells; also called hLILRB5
# [3] = molecular target: T12, Cyno Monocytes / Cyno Neutrophils (Macaca fascicularis); experiment: flow cytometry, cyno whole blood, monocytes
# T12 construct: cell surface, primary blood cells; also called LILRB2+ populations in cyno whole blood
# [4] = molecular target: T1, human LILRB2 expressed on cells; experiment: flow cytometry, human whole blood, monocytes
# [5] = molecular target: T12, Cyno Monocytes / Cyno Neutrophils; experiment: flow cytometry, cyno whole blood, neutrophils
# [6] = molecular target: T13, Rhesus Monocytes / Rhesus Neutrophils (Macaca mulatta); experiment: flow cytometry, rhesus whole blood, monocytes
# T13 construct: cell surface, primary blood cells; also called LILRB2+ populations in rhesus whole blood
# [7] = molecular target: T1, human LILRB2 expressed on cells; experiment: flow cytometry, human whole blood, neutrophils
# [8] = molecular target: T13, Rhesus Monocytes / Rhesus Neutrophils; experiment: flow cytometry, rhesus whole blood, neutrophils
# [9] = molecular target: T1, human LILRB2 expressed on cells; experiment: blocking of HLA-G tetramer on LILRB2 CHOs, flow cytometry, mAb 10 ug/mL
# Method: (§1) In the secondary screen, 1×10⁵ CHO-s cells over-expressing human LILRB2 were plated in 96-well round-bottom tissue culture-treated plate and washed twice with 1×DPBS (Gibco) and incubated with 10 μg/mL primary antibody (anti-LILRB2 mAbs or control) prepared in 50 μL FACS buffer (1×DPBS containing 2% HI-FBS (Sigma)+0.05% Sodium Azide). After incubation with mAbs for 30 minutes at 4° C., cells were washed twice in FACS buffer and then resuspended in 50 μL of FACS buffer containing 5 μg/mL APC-conjugated HLA-A2 or HLA-G tetramer (Fred Hutch). Cells were incubated protected from light for 30-60 minutes at 4° C. After incubation with tetramer, cells were washed in FACS buffer and re-suspended in fix buffer (1.5% paraformaldehyde diluted in 1×DPBS). Samples were analyzed using the Celesta flow cytometer analyzer (BD Biosciences). Data represent percent tetramer blocked by mAbs relative to tetramer alone, calculated according to the following equation: […]
# [10] = molecular target: T1, human LILRB2 expressed on cells; experiment: blocking of HLA-A2 tetramer on LILRB2 CHOs, flow cytometry, mAb 10 ug/mL
# Method: as §1
# human LILRB2-His = human LILRB2-His (human, UniProt Q8N423 22-460); experiment: SPR, Sierra Sensors MASS-2; antibody captured on anti-human Fc, LILRB2-His 65 to 0.27 nM, 1:1 Langmuir fit
# Chain of human LILRB2-His (Q8N423 other isoform, or with tags, fused parts or gaps): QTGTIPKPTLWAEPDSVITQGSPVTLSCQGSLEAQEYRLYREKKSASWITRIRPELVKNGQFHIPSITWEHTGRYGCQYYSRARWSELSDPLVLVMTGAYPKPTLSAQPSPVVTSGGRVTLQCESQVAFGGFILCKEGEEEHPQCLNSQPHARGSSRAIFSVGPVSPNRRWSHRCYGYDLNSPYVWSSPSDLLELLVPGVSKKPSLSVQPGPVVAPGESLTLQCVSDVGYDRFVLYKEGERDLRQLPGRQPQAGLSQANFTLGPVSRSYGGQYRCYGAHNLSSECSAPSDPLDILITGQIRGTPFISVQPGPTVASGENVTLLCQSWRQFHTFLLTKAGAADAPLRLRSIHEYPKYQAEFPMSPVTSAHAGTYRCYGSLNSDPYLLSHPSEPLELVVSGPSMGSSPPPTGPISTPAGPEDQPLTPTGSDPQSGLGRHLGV
# T1 sequence (Q8N423 other isoform, or with tags, fused parts or gaps limits assumed): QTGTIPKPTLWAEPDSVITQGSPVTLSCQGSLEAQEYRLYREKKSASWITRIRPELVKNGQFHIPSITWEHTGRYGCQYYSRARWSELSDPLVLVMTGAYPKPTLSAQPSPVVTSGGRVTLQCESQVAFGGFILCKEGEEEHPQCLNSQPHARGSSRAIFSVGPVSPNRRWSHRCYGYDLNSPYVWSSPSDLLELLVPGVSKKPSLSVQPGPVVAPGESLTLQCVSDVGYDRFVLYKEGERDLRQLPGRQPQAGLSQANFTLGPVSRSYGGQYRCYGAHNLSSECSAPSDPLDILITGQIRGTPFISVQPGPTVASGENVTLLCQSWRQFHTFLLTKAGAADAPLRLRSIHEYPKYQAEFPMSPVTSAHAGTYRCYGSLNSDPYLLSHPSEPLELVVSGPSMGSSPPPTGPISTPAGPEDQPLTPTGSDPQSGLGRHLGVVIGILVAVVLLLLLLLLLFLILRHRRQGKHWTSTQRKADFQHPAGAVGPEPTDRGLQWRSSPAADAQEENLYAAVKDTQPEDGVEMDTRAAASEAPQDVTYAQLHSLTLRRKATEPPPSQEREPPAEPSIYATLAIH
# T7 sequence (Q6PI73 24-481 limits assumed): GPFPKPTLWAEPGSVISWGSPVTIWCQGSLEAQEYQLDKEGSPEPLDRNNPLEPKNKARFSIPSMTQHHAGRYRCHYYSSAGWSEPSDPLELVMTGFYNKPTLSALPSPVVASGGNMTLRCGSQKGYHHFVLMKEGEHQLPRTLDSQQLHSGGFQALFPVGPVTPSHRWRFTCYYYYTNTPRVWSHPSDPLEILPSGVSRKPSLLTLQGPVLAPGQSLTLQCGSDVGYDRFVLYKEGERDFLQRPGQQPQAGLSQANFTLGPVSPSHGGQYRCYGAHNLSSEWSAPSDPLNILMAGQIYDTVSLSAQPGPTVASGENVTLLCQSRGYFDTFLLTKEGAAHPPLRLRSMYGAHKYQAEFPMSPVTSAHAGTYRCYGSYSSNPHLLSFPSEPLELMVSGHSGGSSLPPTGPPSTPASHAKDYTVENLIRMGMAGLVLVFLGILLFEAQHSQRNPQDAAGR
# T5 sequence (P59901 other isoform, or with tags, fused parts or gaps limits assumed): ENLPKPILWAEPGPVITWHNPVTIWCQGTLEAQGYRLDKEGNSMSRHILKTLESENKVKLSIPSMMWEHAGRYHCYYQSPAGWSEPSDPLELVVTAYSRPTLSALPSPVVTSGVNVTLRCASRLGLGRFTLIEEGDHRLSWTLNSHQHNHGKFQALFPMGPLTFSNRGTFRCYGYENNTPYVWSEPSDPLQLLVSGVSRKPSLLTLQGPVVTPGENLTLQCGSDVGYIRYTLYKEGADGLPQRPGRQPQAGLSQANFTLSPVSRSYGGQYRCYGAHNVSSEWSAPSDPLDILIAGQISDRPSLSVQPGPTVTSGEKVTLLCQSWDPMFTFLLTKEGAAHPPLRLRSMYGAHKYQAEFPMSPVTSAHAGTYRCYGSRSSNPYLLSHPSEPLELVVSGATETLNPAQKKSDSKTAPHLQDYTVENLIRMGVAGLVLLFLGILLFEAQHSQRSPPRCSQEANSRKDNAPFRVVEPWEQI
# T2 sequence (O75019 17-489 limits assumed): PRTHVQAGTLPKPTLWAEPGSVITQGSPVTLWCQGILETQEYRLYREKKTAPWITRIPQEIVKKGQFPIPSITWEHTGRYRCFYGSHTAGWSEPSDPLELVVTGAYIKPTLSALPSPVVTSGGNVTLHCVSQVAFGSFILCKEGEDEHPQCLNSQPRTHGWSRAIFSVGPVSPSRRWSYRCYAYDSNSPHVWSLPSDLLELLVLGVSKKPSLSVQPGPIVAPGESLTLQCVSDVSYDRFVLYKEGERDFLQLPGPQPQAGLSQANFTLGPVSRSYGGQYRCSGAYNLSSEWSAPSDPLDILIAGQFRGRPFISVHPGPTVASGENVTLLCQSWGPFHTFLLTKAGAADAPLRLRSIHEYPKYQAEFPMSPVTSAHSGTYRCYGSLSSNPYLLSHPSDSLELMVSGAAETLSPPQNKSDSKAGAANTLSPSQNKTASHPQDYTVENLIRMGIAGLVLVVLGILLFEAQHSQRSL
# T8 sequence (Q8NHL6 24-650 limits assumed): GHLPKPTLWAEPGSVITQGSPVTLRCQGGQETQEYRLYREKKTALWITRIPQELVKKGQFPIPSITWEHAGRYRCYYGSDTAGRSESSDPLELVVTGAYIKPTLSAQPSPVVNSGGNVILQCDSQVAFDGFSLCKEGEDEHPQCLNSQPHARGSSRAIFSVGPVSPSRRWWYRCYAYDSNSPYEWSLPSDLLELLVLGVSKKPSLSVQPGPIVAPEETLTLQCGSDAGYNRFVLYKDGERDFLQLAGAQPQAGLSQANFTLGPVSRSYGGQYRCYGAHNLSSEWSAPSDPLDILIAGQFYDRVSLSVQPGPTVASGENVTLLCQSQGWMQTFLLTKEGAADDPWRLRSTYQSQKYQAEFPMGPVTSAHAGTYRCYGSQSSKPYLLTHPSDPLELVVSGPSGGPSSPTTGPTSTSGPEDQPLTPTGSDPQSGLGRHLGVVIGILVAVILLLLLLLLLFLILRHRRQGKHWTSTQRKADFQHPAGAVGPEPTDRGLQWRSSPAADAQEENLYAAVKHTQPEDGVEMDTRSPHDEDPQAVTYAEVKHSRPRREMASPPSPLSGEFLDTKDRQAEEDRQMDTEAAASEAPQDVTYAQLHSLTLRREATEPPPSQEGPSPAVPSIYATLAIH
# T3 sequence (Q8N149 24-483 S135L limits assumed): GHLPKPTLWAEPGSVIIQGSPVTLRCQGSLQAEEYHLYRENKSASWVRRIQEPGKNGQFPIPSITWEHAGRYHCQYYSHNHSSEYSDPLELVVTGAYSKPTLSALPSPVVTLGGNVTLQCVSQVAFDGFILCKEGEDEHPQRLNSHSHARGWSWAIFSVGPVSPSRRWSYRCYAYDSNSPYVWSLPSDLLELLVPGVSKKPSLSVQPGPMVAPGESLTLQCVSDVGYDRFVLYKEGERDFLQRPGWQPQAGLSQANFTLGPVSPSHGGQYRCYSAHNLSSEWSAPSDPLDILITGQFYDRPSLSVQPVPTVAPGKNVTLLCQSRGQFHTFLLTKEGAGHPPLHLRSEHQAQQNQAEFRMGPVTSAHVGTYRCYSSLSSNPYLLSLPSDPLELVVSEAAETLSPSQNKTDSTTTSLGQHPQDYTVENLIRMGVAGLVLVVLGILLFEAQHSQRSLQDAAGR
# T11 sequence (O75023 24-590 P542R limits assumed): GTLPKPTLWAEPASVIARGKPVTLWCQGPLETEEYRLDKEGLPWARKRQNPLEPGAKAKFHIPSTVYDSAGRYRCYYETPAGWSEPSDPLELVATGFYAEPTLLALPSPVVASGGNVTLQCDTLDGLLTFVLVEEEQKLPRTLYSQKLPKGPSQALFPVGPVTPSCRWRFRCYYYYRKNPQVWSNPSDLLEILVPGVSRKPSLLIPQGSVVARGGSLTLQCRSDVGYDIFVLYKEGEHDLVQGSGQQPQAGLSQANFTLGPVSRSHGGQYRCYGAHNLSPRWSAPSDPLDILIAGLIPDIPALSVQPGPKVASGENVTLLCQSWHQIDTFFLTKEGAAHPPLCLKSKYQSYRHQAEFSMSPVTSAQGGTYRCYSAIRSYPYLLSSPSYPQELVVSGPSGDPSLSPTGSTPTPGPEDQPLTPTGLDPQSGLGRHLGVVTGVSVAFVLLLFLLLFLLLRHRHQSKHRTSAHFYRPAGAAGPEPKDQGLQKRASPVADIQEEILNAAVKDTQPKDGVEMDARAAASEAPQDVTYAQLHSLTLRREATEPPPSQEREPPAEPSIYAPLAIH
# T4 sequence (Q8N6C8 24-439 limits assumed): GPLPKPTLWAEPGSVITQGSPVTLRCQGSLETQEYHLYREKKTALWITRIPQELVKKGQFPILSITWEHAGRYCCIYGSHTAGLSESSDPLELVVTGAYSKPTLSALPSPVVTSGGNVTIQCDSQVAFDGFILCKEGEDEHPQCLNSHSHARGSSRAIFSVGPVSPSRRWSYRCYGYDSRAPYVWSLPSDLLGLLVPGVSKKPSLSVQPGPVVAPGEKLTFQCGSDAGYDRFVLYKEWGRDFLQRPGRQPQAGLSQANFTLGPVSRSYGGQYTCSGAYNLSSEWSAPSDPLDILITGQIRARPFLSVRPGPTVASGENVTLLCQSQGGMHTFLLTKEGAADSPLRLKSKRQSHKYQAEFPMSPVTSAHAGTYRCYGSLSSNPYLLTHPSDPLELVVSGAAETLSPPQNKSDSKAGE
# T6 sequence (A6NI73 42-299 limits assumed): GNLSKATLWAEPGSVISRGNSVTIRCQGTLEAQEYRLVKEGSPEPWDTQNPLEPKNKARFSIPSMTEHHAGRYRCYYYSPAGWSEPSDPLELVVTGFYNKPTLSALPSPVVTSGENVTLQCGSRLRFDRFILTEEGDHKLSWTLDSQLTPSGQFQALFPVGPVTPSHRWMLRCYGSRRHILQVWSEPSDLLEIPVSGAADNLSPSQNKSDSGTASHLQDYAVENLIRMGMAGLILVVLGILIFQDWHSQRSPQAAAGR
binder,measurement,setting,value
B1,CCL2 production (fold over LPS alone),[1],1.69 fold over LPS alone
same,IL-6 production (fold over LPS alone),[1],2.72 fold over LPS alone
same,IL-10 production (fold over LPS alone),[1],0.8 fold over LPS alone
same,TNFa production (fold over LPS alone),[1],8.9 fold over LPS alone
same,binding (fold over iso),human LILRA1,-3.31 fold over iso
same,binding result,human LILRA1,no binding
same,binding (fold over iso),human LILRA2,-0.51 fold over iso
same,binding result,human LILRA2,no binding
same,binding (fold over iso),human LILRA3,0.97 fold over iso
same,binding result,human LILRA3,no binding
same,binding (fold over iso),human LILRA4,-26.8 fold over iso
same,binding result,human LILRA4,no binding
same,binding (fold over iso),human LILRA5,-0.62 fold over iso
same,binding result,human LILRA5,no binding
same,binding (fold over iso),human LILRA6,1.07 fold over iso
same,binding result,human LILRA6,no binding
same,binding (fold over iso),human LILRB1,1.05 fold over iso
same,binding result,human LILRB1,no binding
same,binding (fold over iso),[2],3.78 fold over iso
same,binding (fold over iso),human LILRB3,1.09 fold over iso
same,binding result,human LILRB3,no binding
same,binding (fold over iso),human LILRB4,1.03 fold over iso
same,binding result,human LILRB4,no binding
same,binding (fold over iso),human LILRB5,1.19 fold over iso
same,binding result,human LILRB5,no binding
same,Cyno Monocytes binding (fold over iso),[3],17.9 fold over iso
same,Human Monocytes binding (fold over iso),[4],12.3 fold over iso
same,Cyno Neutrophils binding (fold over iso),[5],2.35 fold over iso
same,Rhesus Monocytes binding (fold over iso),[6],6.79 fold over iso
same,Human Neutrophils binding (fold over iso),[7],4.5 fold over iso
same,Rhesus Neutrophils binding (fold over iso),[8],21.9 fold over iso
same,HLA-G:LILRB2 CHOs blocking (% blocked),[9],97 % blocked
same,HLA-A2:LILRB2 CHOs blocking (% blocked),[10],95.3 % blocked
same,Kd,human LILRB2-His,2.62 nM
same,koff,human LILRB2-His,0.00135 s⁻¹
same,kon,human LILRB2-His,515000 M⁻¹ s⁻¹
